The nature of this series: yeast display, Sf9 membrane polyspecificity reagent, FACS + sequencing; frameworks hold sequencing errors. The essentials:
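Galactose-induced (36–48 hours) yeast carrying a synthetic nanobody display library were exposed to 10% biotinylated, detergent-solubilized Sf9 membrane reagent at 4 °C for 1 hour. FACS followed streptavidin microbead enrichment, using low and high (top ~1%) gates for expression (anti-HA) and reagent binding (streptavidin). Colony PCR, MiSeq 2 × 250 sequencing and CDR-length filtering followed. Labels for polyreactivity reflect the gate of origin.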
With “QVQLVESGGGLVQAGGSLRLSCAASGSTFTGYAMGWYRPAPGKERELVAAISRSVGRTYYADSVKGRFTISRDNAKNTVYLQMNSLKPEDTAVYYCAADVYLTGSRNYYWGQGTQVTVSS”, the “polyreactivity (PSR sort gate)” value is “high polyreactivity”.
In the case of “QVQLVESGGGLVQAGGSLRLSCAASGRTLRSYAMGWYRQAPGKERELVAAITRTGGDTYYADSVKGRFTISRDNANNTLYLQMNSLKPEDTAVYYCAAQRYRGYDYWGQGTQVTVSS”, the “polyreactivity (PSR sort gate)” value is reported as “high polyreactivity”.
As to “QVQLVESGGGLVQAGGSIRLSCAASGRTFSKYTMGWYRQAPGKERELVAVISRSGTRTYYADSVKGRFTISRDNAKNTVYLQMNSLKAEDTAVYYCAAKDERRSFGMGYWGQGTHVTVSS”, the “polyreactivity (PSR sort gate)” value is “high polyreactivity”.
With “QVQLVESGGGLVQAAGSLRLSCAASGYTSSVYAMGWYIQAHGKERELVAAISADGGSTYYADSVKGRFTISRDNAKNTVYLQMNSLKPEDTAVYYCAKYTYPYTPYSWWYDYWGQGTQVTVSS” the entry was “low polyreactivity”; with “QVQLVESGGGLVQAGGSLRLSCAASGSTIVNNAMGWYIQAPGKERELVAAIRSSDGRTYYADSVKGRFTISRDNAKNTVYLQMNSLKPEDTAVYYCNRRYRKYSSAKYDYWGQGTQVTVSS”, “high polyreactivity”; with “QVQLVESGGGLVQAGGSLRLRCAATGFISVTYAMGWYRQAPGKERELVAAITYSGGSTYYADSVKGRFTISRDNAKNTVYLQMNSLKPEDTAVYYCATEPQSDYSYDYWGQGTQVTVSS”, “low polyreactivity”.
With “QVQLVESGGGLVQAGGSLRLSCAASGFTFYTNVMAWYRQAPGKERELVAAINSGGSTNYADSVKGRFTISRDNAKNTVFLQMNSLKPEDTAVYYCNKRGTEIGYDYWGQGTQVTVLS” the entry was “low polyreactivity”.
With “QVQLVESGGGLVQAGGSLRLSCAASGRIFYTYAMGWYRQAPGKERELVAAITSSGGRTYYADSVKGRFTISRDNAKNTVYLQMNSLKPEVTAVYYCATRYPWGWAMNYWGQGTQVTVSS”, the “polyreactivity (PSR sort gate)” value is “high polyreactivity”.
In the case of “QVQLVESGGGLVQAGGSLRLSCAASGFTFRYYPMGWYRQAPGKERELVAAISWDRDSTYYADSVKGRFTISRDHAKHTVYFQMNSLKPEDTAVYYCAPEYRSWGRYRYRFNYWGQGTQVTVSS” it was “high polyreactivity”.
For the sequence “QVQLVESGGGLVQAGGSLRLSCAASGFICVHKAMGWYREAPGNERELVAAITWSGGRTYYADSVKGRCTISRDKAKNTVYLQKNSLKPEDTAVYYCATTVNSHVPGVSKYYYWGHGTQVTVSS”, the “polyreactivity (PSR sort gate)” value was “high polyreactivity”.
In the case of “QVQLVESGGGLVQAGGSLRLSCAASGSTFPYNVMGWYRQAPGKERELVASISWSGGRQYYADSVKGRFTISRDNAKNTVYLQMNSLKPEDTAVYYCAADAAFPADYWGQGTQVTVSS” it was “low polyreactivity”; in that of “QVQLVESGGGLVQAGGSLRLSCAASGRIFDGYAMGWYRQAPGKESELVATIDVSGGRTTYADSVKGRFTISRDNAKNTVYLQMNSLKPEDTAVYYCNVDYYWSSGGTDYDYWGQGTQVTVSS”, “low polyreactivity”; in that of “QVHLVESGGALVQAGGSLPLSFSASGSIFTYYAMGWYRQQPGKERELVAAINSGGRTNYADSVKGRFTISRDNAKNTVYLQMNSLKPEDTAVYYCAKYGVLQYGYWGQGTQVTVSS”, “low polyreactivity”.
In the case of “QVQLVESGGGLDQAGGSLRLSCAASGYTLGDYAMGWYRQAPGKERELVAVITRNGGRTYYADSVKGRFTISRDNAKNTVFLQMNSLKPEDTAVYYCNRDTSIRDYNYWGQGTQVTVSS” it was “high polyreactivity”; in that of “QVQLVESGGGLVHAGGSLSLSCAASGIIFPWYTMGWYRKAPGKERELVAAISSGGRTNYADSVKGRFTISRDNATNTVFLQMNSLKQEDTAVYYCGAKYYRDRDWGQGTQVTVSS”, “high polyreactivity”; in that of “QVQLVESGGGLVQAGGSLRLSCAASGSIFPLYAMGWYRQAPGKERELVAAISWSGGSTYYADSVKGRFTISRDNAKNTVYLQMNSLKPEDTAVYYCATLYISTSGYIYEGDYWGQGTQVTVSS”, “high polyreactivity”.
Consider “QVQLVESGGGLVQAGGSLRLSCAASGSIFKAHTMGWYRQAPGKERELVAAISGSGGRTRYADSVKGRFTISRDNAKITVYLQMNSLKPDVTAVYYCAASDRGGYYYWGQGTQVTVSS”, for which the “polyreactivity (PSR sort gate)” value is recorded as “high polyreactivity”.
Consider “QVQLVESGGGLVQAGGSLRLSCAASGFTTRSYAMGWYRQAPGKERELVAAISFSGGRTYYADSVKGRFTISRDNAKNTVYLQMNSLKPEDTAVYYCNARAYTRYSLLDYWGQGTQVTVSS”, for which the “polyreactivity (PSR sort gate)” value is on record as “high polyreactivity”.
In the case of “QVQLVESGGGLVQAGGSLRLSCAASGSIFSFYTMGWYRQAPGKERELVARIRSSGGDTYYADSVKGRFTISRDNAKNTVYLQMNSLKPEDTAVYYCARDGYHRDYDYWGQGTQVTVSS” it was “low polyreactivity”; in that of “QVQLVDSGGGLVQAGGSLRLSCAASGRIIGGKAMGWYRLAPGKVREFVAAIRASGGSPHYADSVKGRFTISRDNAKNTVYLQRNSLTPEDTEVYYCNALSRNTHLYDYWGQGTHVTVSS”, “high polyreactivity”; in that of “QVQLVESGGGLVQAGGSLRLSCAASGSTFKFNAMGWYRQAPGKERELVAAISRGGRTNYADSVKGRFTISRDNAKNTVYLQMNSLKPEDTAFYYCAADYSTLYKDDYWGQGTQVTVSS”, “low polyreactivity”.
“QVQLVESGGGLLQAGGSLRLSCAASGFIFHHYGMGWYRQAPGKERELVAGDTHYADSVKGRFTISRDNAKNTVYLQMNSLKPEDTGVYYCNAYWKDDFEDGPGRRGMDYWGQGTQVTVSS”: the “polyreactivity (PSR sort gate)” value is on record as “low polyreactivity”.
With “QVQLVESGGGLVQAGGSLRLSCAASGRIFGLYAMGWYRQAPGKERELVAAIRGRGGRTSYADSVKGRFTISRDNAKNTVYLQMNSLKPEDTAVYYCNAELYPWPGVVRYNYWGQGTQVTVSS” the entry was “high polyreactivity”; with “QVQLVESGGGLVQAGGSLRLSCAASGRIFYTYAMGWYRQAPGKERELVAGISRGGRTYYADSVKGRFTISRDNAKNSVYLQMNSLKPEDTAVYYCAARLQYGIQYRYDYWGQGTQVTVSS”, “high polyreactivity”.
Consider “QVHLVESGGGLVQAGGSLRLSCAASGSILTDNAMGWYRQAPGKERELVAAITSSGNTNYADSVKGRFTISRDNAKNTVYLQMNSLKPEDTAVYYCAADSYYKHWTDWLPVGEDYWGQGTEVTVSS”, for which the “polyreactivity (PSR sort gate)” value is given as “low polyreactivity”.
On to “QVQLVESGGGLVQAGGSLRLSCASSGRIFGTYAMGWYRQAPGKERELVARIRTSGSTNYADSVKGRFTISRDNAKNTVYLQMNSLKPEDTAVYYCAADRRYYSAYEYWGQGTQVTVSS”, for which the “polyreactivity (PSR sort gate)” value is on record as “high polyreactivity”.
With “QVQLVESGGGLVQAGGSLRLSCAASGSIFTSYAMGWYIPAPGKERELVASISGSGGSTYYADSVKGRFTISRDYSMNTVYLQMNRLKPEVTEVYVCANRCYNGWLRRYYYWGQGTNVTVSS” the entry was “high polyreactivity”; with “QVQLVESGGGLVQAGGSLRLSCAASGSILAHYAMGWYRQAPGKERELVAGISSGGSTNYADSVKGRFTISRDNAKNTVYLQMNSLKPEDTAVYYCNADQDFLFIGYLFDYWGQGTQVTVSS”, “low polyreactivity”.
In the case of “QVQLVESGGGLVQAGGSLRLSCAASGITFPWYAMGWYRQAPGKERELVAAINLAGNTNYADSVKGRFTISRDNAKNNVYLQMNSLKPEDTSVYYCAARWRYKYTLGYWGQGTQVTVSS” it was “high polyreactivity”.
Take “QVQLVESGGGLVQAGGSLRLSCAASGGIFDRYAMGWYRQAPGKERELVAAITSGGSTNYADSVKGRFTISRDNAKNTVYLQMNSLKPEDNAVYYCAAVESSYEAWYTYYYWGQGTQVTVSS”: the “polyreactivity (PSR sort gate)” value is listed as “low polyreactivity”.

Source of the values: the nanobody polyreactivity screen of Harvey et al. (2022).
